Results: article PMC10840515
pIC50: −log10 of the molar value. Where two headings read alike, the source gives them in different places.

Assays:
[1] = target: HLA-DR1 (HLA-DRA*0101, HLA-DRB1*0101) (human); assay: ELISA
[2] = target: HLA-DR1 (HLA-DRA*0101, HLA-DRB1*0101) (human); assay: ELISA; remark: listed apart in the source

## SARS-CoV-2 Spike peptide S761-775 (Wuhan HU-1)
[1]
  pIC50: < 5.00

## SARS-CoV-2 Spike peptide S486-505 (Omicron BA.1)
[2]
  pIC50: 6.12

## SARS-CoV-2 Spike peptide S761-775 (Omicron BA.1)
[2]
  pIC50: 5.17
